In PMC6910828 one finds fold reduction of the extraction of Cdc42:GDP against WT GDI data, which are given here for 1 substance.

In the test the target is Cy3-labelled, prenylated Cdc42, wild type, GDP-bound. The test can be described thus: membrane extraction (wash-off) assay on supported lipid bilayers, TIRF; as above, GDI titrated between 0 and 20 µM; Koff of the GTPase from the membrane plotted against GDI concentration and fitted with a hyperbolic function (Kd, Vmax); apparent affinities.

Take “Xenopus laevis RhoGDI E158/9Q (natural protein)”: the fold reduction of the extraction of Cdc42:GDP against WT GDI was under 2 fold.
